US20210071139A1

Each substance was assayed against TOX (UniProt Q66JW3) (assay: TOX IP-MS, EL4 nuclear extract, MiST; row of the bait itself).
TOX, sequence (Q66JW3 whole entry): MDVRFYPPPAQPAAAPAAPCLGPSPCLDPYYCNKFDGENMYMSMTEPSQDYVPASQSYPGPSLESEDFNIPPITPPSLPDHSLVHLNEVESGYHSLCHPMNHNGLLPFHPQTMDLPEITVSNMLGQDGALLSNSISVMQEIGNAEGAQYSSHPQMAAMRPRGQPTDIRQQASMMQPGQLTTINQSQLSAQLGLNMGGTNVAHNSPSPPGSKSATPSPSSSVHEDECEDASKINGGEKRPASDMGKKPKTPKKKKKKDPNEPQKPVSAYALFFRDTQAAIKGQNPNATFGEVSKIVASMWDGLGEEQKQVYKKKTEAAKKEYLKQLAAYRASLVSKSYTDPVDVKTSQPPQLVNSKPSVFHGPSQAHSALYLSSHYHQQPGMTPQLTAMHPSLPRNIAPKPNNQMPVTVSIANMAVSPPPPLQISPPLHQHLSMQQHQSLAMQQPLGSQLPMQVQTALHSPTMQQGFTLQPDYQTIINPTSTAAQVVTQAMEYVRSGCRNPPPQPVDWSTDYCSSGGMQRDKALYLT

anti-TOX antibody (Abcam, ab155768) showed an Abundance of 0.00704.

For anti-TOX antibody (Abcam, ab155768), the MiST Score was 0.976.

Work on anti-TOX antibody (Abcam, ab155768) yielded a Reproducibility of 0.964.

anti-TOX antibody (Abcam, ab155768) showed a Specificity of 0.99.

Each substance was assayed against TOX (UniProt Q66JW3) (assay: anti-TOX IP from EL4 nuclear extract, LC-MS/MS, MiST vs IgG control).

Compared with Actr5 (from UniProt Q80US4 1-605), Ap2a1 (from UniProt P17426 1-977) is lower in Abundance: 9e-06 for the first, 2.47e-06 for the second.

First: Bclaf1 (from UniProt Q8K019 1-919)
Second: Ccdc86 (from UniProt Q9JJ89 1-426)
The Abundance of the first is higher: 6.73e-05 for the first, 3.82e-05 for the second.

Compared with Cnot10 (from UniProt Q8BH15 2-744), Cwc15 (from UniProt Q9JHS9 2-229) is higher in Abundance: 8.51e-06 for the first, 9.35e-05 for the second.

Compared with “Dld (from UniProt O08749 36-509) (enzyme)”, Ebna1bp2 (from UniProt Q9D903 1-306) is higher in Abundance: 1.87e-05 for the first, 9.4e-05 for the second.

Compared with Eif3a (from UniProt P23116 1-1344), Gatad2a (from UniProt Q8CHY6 1-629) is higher in Abundance: 1.17e-05 for the first, 1.98e-05 for the second.

First: Gatad2b (from UniProt Q8VHR5 1-594)
Second: Nol7 (from UniProt Q9D7Z3 1-254)
The Abundance of the first is lower: 1.65e-05 for the first, 0.000128 for the second.

Going from Pabpn1 (from UniProt Q8CCS6 2-302) to Paxbp1 (from UniProt P58501 1-919), the Abundance falls from 8.22e-05 to 1.83e-06.

First: Pnn (from UniProt O35691 2-725)
Second: Pop1
The Abundance of the first is higher: 7.35e-05 for the first, 2.18e-06 for the second.

Going from Raver1 (from UniProt Q9CW46 2-748) to Rbm25 (from UniProt B2RY56 1-838), the Abundance falls from 4.89e-05 to 9.24e-06.

Compared with Rrp1 (from UniProt P56183 1-494), Rsl1d1 (from UniProt Q8BVY0 1-452) is higher in Abundance: 9e-06 for the first, 0.000211 for the second.

Going from “Soat1 (from UniProt Q61263 1-540) (enzyme)” to Thoc6 (from UniProt Q5U4D9 1-341), the Abundance rises from 5.75e-06 to 3.97e-05.

First: Top3b (from UniProt Q9Z321 1-862) (enzyme)
Second: Yme1l1 (from UniProt O88967 1-715) (enzyme)
The Abundance of the first is lower: 8.1e-07 for the first, 1.45e-05 for the second.

Compared with Actr5 (from UniProt Q80US4 1-605), Ap2a1 (from UniProt P17426 1-977) is higher in MiST Score: 0.753 for the first, 0.754 for the second.

Compared with Bclaf1 (from UniProt Q8K019 1-919), Ccdc86 (from UniProt Q9JJ89 1-426) is lower in MiST Score: 0.756 for the first, 0.751 for the second.

Compared with Cnot10 (from UniProt Q8BH15 2-744), Cwc15 (from UniProt Q9JHS9 2-229) is higher in MiST Score: 0.751 for the first, 0.756 for the second.

Compared with “Dld (from UniProt O08749 36-509) (enzyme)”, Ebna1bp2 (from UniProt Q9D903 1-306) is lower in MiST Score: 0.76 for the first, 0.752 for the second.

Compared with Eif3a (from UniProt P23116 1-1344), Gatad2a (from UniProt Q8CHY6 1-629) is lower in MiST Score: 0.764 for the first, 0.76 for the second.

Going from Gatad2b (from UniProt Q8VHR5 1-594) to Nol7 (from UniProt Q9D7Z3 1-254), the MiST Score rises from 0.752 to 0.757.

First: Pabpn1 (from UniProt Q8CCS6 2-302)
Second: Paxbp1 (from UniProt P58501 1-919)
The MiST Score of the first is higher: 0.759 for the first, 0.75 for the second.

Going from Pnn (from UniProt O35691 2-725) to Pop1, the MiST Score falls from 0.762 to 0.754.

First: Raver1 (from UniProt Q9CW46 2-748)
Second: Rbm25 (from UniProt B2RY56 1-838)
The MiST Score of the first is higher: 0.762 for the first, 0.755 for the second.

Compared with Rrp1 (from UniProt P56183 1-494), Rsl1d1 (from UniProt Q8BVY0 1-452) is higher in MiST Score: 0.753 for the first, 0.759 for the second.

First: Soat1 (from UniProt Q61263 1-540) (enzyme)
Second: Thoc6 (from UniProt Q5U4D9 1-341)
The MiST Score of the first is higher: 0.762 for the first, 0.76 for the second.

Going from “Top3b (from UniProt Q9Z321 1-862) (enzyme)” to “Yme1l1 (from UniProt O88967 1-715) (enzyme)”, the MiST Score falls from 0.752 to 0.75.

First: Actr5 (from UniProt Q80US4 1-605)
Second: Ap2a1 (from UniProt P17426 1-977)
The Reproducibility of the first is higher: 0.979 for the first, 0.846 for the second.

Going from Bclaf1 (from UniProt Q8K019 1-919) to Ccdc86 (from UniProt Q9JJ89 1-426), the Reproducibility rises from 0.872 to 0.964.

Compared with Cnot10 (from UniProt Q8BH15 2-744), Cwc15 (from UniProt Q9JHS9 2-229) is lower in Reproducibility: 0.946 for the first, 0.814 for the second.

Compared with “Dld (from UniProt O08749 36-509) (enzyme)”, Ebna1bp2 (from UniProt Q9D903 1-306) is higher in Reproducibility: 0.898 for the first, 0.984 for the second.

Going from Eif3a (from UniProt P23116 1-1344) to Gatad2a (from UniProt Q8CHY6 1-629), the Reproducibility rises from 0.795 to 0.908.

Compared with Gatad2b (from UniProt Q8VHR5 1-594), Nol7 (from UniProt Q9D7Z3 1-254) is higher in Reproducibility: 0.863 for the first, 0.972 for the second.

First: Pabpn1 (from UniProt Q8CCS6 2-302)
Second: Paxbp1 (from UniProt P58501 1-919)
The Reproducibility of the first is higher: 0.992 for the first, 0.516 for the second.

First: Pnn (from UniProt O35691 2-725)
Second: Pop1
The Reproducibility of the first is lower: 0.681 for the first, 0.906 for the second.

Going from Raver1 (from UniProt Q9CW46 2-748) to Rbm25 (from UniProt B2RY56 1-838), the Reproducibility falls from 0.839 to 0.601.

Compared with Rrp1 (from UniProt P56183 1-494), Rsl1d1 (from UniProt Q8BVY0 1-452) is higher in Reproducibility: 0.976 for the first, 0.984 for the second.

Compared with “Soat1 (from UniProt Q61263 1-540) (enzyme)”, Thoc6 (from UniProt Q5U4D9 1-341) is higher in Reproducibility: 0.249 for the first, 0.994 for the second.

Compared with “Top3b (from UniProt Q9Z321 1-862) (enzyme)”, “Yme1l1 (from UniProt O88967 1-715) (enzyme)” is higher in Reproducibility: 0.541 for the first, 0.988 for the second.

Compared with Actr5 (from UniProt Q80US4 1-605), Ap2a1 (from UniProt P17426 1-977) is higher in Specificity: 0.658 for the first, 0.719 for the second.

Compared with Bclaf1 (from UniProt Q8K019 1-919), Ccdc86 (from UniProt Q9JJ89 1-426) is lower in Specificity: 0.71 for the first, 0.662 for the second.

Going from Cnot10 (from UniProt Q8BH15 2-744) to Cwc15 (from UniProt Q9JHS9 2-229), the Specificity rises from 0.669 to 0.736.

Going from “Dld (from UniProt O08749 36-509) (enzyme)” to Ebna1bp2 (from UniProt Q9D903 1-306), the Specificity falls from 0.704 to 0.654.

Going from Eif3a (from UniProt P23116 1-1344) to Gatad2a (from UniProt Q8CHY6 1-629), the Specificity falls from 0.757 to 0.7.

Compared with Gatad2b (from UniProt Q8VHR5 1-594), Nol7 (from UniProt Q9D7Z3 1-254) is lower in Specificity: 0.708 for the first, 0.666 for the second.

Compared with Pabpn1 (from UniProt Q8CCS6 2-302), Paxbp1 (from UniProt P58501 1-919) is higher in Specificity: 0.66 for the first, 0.862 for the second.

First: Pnn (from UniProt O35691 2-725)
Second: Pop1
The Specificity of the first is higher: 0.805 for the first, 0.693 for the second.

Going from Raver1 (from UniProt Q9CW46 2-748) to Rbm25 (from UniProt B2RY56 1-838), the Specificity rises from 0.734 to 0.831.

First: Rrp1 (from UniProt P56183 1-494)
Second: Rsl1d1 (from UniProt Q8BVY0 1-452)
The Specificity of the first is lower: 0.659 for the first, 0.665 for the second.

Compared with “Soat1 (from UniProt Q61263 1-540) (enzyme)”, Thoc6 (from UniProt Q5U4D9 1-341) is lower in Specificity: 1 for the first, 0.661 for the second.

Going from “Top3b (from UniProt Q9Z321 1-862) (enzyme)” to “Yme1l1 (from UniProt O88967 1-715) (enzyme)”, the Specificity falls from 0.854 to 0.65.
